# Data as given in patent publication US20090325869A1 (CHILDREN S HOSPITAL AND RESEARCH CENTER OAKLAND, published 2009).
# T1: Ferritin H (frog), wild type, protein nanocage (frog, UniProt P07229 2-176)
# T1 sequence (looked up): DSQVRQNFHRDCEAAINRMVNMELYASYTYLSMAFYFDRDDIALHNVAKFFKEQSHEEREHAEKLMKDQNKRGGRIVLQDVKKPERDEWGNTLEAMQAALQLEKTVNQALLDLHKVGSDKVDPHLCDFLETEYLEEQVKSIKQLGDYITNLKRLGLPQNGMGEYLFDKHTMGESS
# Biological target: T1, Ferritin H (frog), wild type, protein …
# Assay: cell-based or functional assay
binder,measurement,value
"HSNTYYFPKGG [Peptide 1, synthetic undecapeptide HSNTYYFPKGG]","rate of ferritin demineralization, fold against wild type ferritin H without peptide",3.3 fold
